According to PMC6900781:
One block for each binder: values may come before it.

What was measured:
Settings in all cases: remark: other sources report otherwise
[1] = target: T1, GFP-LacI-dCENP-C (Drosophila melanogaster), Q9VHP9; assay: LacI/LacO tethering and recruitment assay (immunofluorescence); bait fused to GFP-LacI tethered to chromosomal LacO arrays in human U2OS cells; HA- or V5-tagged prey transiently co-expressed; IF 48 h after transfection, prey intensity at the LacO spot or % of cells; no third Drosophila centromere protein co-expressed
T1 chain: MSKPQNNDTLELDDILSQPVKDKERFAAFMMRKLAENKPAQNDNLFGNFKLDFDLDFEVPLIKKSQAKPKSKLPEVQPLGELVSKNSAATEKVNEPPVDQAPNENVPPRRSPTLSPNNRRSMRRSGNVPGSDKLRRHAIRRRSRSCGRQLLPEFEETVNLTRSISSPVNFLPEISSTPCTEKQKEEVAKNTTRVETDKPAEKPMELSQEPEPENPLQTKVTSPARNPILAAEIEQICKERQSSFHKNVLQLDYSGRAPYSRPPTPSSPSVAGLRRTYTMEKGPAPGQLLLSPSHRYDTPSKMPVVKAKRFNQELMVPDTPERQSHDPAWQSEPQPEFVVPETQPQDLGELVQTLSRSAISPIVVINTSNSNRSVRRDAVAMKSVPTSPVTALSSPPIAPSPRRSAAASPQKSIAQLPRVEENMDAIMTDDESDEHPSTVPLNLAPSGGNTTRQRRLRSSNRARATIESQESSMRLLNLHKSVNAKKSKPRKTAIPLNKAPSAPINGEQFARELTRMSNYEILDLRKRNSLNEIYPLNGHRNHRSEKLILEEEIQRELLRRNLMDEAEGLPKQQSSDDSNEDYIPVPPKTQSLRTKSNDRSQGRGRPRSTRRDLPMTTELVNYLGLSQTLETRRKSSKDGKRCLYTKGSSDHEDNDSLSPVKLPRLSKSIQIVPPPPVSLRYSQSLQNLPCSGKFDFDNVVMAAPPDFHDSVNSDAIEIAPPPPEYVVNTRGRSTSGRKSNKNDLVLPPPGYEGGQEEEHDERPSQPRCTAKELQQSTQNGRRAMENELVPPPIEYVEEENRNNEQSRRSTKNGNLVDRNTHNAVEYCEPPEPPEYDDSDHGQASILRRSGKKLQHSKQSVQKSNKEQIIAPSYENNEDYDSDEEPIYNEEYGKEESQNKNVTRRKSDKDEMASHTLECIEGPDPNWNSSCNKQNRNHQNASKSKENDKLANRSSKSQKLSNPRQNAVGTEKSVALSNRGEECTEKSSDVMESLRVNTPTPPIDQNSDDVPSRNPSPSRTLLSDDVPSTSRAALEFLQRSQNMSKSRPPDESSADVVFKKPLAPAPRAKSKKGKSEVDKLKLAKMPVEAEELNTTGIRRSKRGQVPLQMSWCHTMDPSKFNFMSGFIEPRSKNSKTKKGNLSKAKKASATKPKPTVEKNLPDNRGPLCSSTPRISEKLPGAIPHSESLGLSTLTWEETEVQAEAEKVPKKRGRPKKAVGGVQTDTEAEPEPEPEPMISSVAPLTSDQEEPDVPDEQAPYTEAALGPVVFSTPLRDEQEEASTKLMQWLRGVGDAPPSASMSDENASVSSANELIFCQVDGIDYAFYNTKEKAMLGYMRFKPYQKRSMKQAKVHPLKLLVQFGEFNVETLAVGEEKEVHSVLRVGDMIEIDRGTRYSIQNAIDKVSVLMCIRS

[2] = target: T1, GFP-LacI-dCENP-C (Drosophila …); assay: LacI/LacO tethering and recruitment assay (immunofluorescence); as a1, but with a third Drosophila centromere protein (CAL1-V5, dCENP-A-HA or -V5, or HA-dCENP-C) co-expressed, as named in the row
[3] = target: (dCENP-A/dH4) dimer (Drosophila melanogaster), Q9V6Q2; assay: SEC-MALS; recombinant proteins; Superdex 200 10/300 Increase GL, 50 mM HEPES pH 8.0, 150 or 300 mM NaCl, 1 mM TCEP, 22°C, 100 μl of 1-5 mg/ml
[4] = target: T2, dCENP-A-GFP-LacI (Drosophila melanogaster), Q9V6Q2; assay: LacI/LacO tethering and recruitment assay (immunofluorescence); bait fused to GFP-LacI tethered to chromosomal LacO arrays in human U2OS cells; HA- or V5-tagged prey transiently co-expressed; IF 48 h after transfection, prey intensity at the LacO spot or % of cells; no third Drosophila centromere protein co-expressed
T2 chain: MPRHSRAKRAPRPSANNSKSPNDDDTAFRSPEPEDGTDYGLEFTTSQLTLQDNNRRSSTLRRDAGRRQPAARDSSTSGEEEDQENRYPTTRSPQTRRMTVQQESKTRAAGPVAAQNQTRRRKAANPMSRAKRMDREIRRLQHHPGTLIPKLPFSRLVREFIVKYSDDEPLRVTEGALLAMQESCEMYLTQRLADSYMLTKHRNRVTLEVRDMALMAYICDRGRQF

[5] = target: T2, dCENP-A-GFP-LacI (Drosophila …); assay: LacI/LacO tethering and recruitment assay (immunofluorescence); as a1, but with a third Drosophila centromere protein (CAL1-V5, dCENP-A-HA or -V5, or HA-dCENP-C) co-expressed, as named in the row

- % of cells with localization at LacO (without CAL1) [1]: 43 % cells
- % of cells with localization at LacO (with CAL1-V5) [2]: 73 % cells
B1: dCENP-A-HA, Q9V6Q2 1-225 (natural protein)
chain: MPRHSRAKRAPRPSANNSKSPNDDDTAFRSPEPEDGTDYGLEFTTSQLTLQDNNRRSSTLRRDAGRRQPAARDSSTSGEEEDQENRYPTTRSPQTRRMTVQQESKTRAAGPVAAQNQTRRRKAANPMSRAKRMDREIRRLQHHPGTLIPKLPFSRLVREFIVKYSDDEPLRVTEGALLAMQESCEMYLTQRLADSYMLTKHRNRVTLEVRDMALMAYICDRGRQF

- stoichiometry N ((dCENP-A/dH4) dimer per CAL1(1-160)) [3]: 1
B2: recombinant CAL1(1-160), Q9VEN2 1-160 (domain or fragment)
chain: MANAVVDEETLEAMVYERSKAWSSKMADFASLEDGMEIDVAEFDNLFHGEDEDPDLDDVAKEAVEDNVPDEAKLEMGHINATSVTELTLILCANEDNEAKAEIEEILNQTVPVVEEHKRKWREAGLDRILDTFDEKQIEHHVGRWMRRHNSVYLEASPPK

- % of cells with recruitment at LacO (without CAL1-V5) [4]: 17 % cells
- % of cells with recruitment at LacO (with CAL1-V5) [5]: 55 % cells
B3: HA-dCENP-C, Q9VHP9 1-1411 (natural protein)
chain: MSKPQNNDTLELDDILSQPVKDKERFAAFMMRKLAENKPAQNDNLFGNFKLDFDLDFEVPLIKKSQAKPKSKLPEVQPLGELVSKNSAATEKVNEPPVDQAPNENVPPRRSPTLSPNNRRSMRRSGNVPGSDKLRRHAIRRRSRSCGRQLLPEFEETVNLTRSISSPVNFLPEISSTPCTEKQKEEVAKNTTRVETDKPAEKPMELSQEPEPENPLQTKVTSPARNPILAAEIEQICKERQSSFHKNVLQLDYSGRAPYSRPPTPSSPSVAGLRRTYTMEKGPAPGQLLLSPSHRYDTPSKMPVVKAKRFNQELMVPDTPERQSHDPAWQSEPQPEFVVPETQPQDLGELVQTLSRSAISPIVVINTSNSNRSVRRDAVAMKSVPTSPVTALSSPPIAPSPRRSAAASPQKSIAQLPRVEENMDAIMTDDESDEHPSTVPLNLAPSGGNTTRQRRLRSSNRARATIESQESSMRLLNLHKSVNAKKSKPRKTAIPLNKAPSAPINGEQFARELTRMSNYEILDLRKRNSLNEIYPLNGHRNHRSEKLILEEEIQRELLRRNLMDEAEGLPKQQSSDDSNEDYIPVPPKTQSLRTKSNDRSQGRGRPRSTRRDLPMTTELVNYLGLSQTLETRRKSSKDGKRCLYTKGSSDHEDNDSLSPVKLPRLSKSIQIVPPPPVSLRYSQSLQNLPCSGKFDFDNVVMAAPPDFHDSVNSDAIEIAPPPPEYVVNTRGRSTSGRKSNKNDLVLPPPGYEGGQEEEHDERPSQPRCTAKELQQSTQNGRRAMENELVPPPIEYVEEENRNNEQSRRSTKNGNLVDRNTHNAVEYCEPPEPPEYDDSDHGQASILRRSGKKLQHSKQSVQKSNKEQIIAPSYENNEDYDSDEEPIYNEEYGKEESQNKNVTRRKSDKDEMASHTLECIEGPDPNWNSSCNKQNRNHQNASKSKENDKLANRSSKSQKLSNPRQNAVGTEKSVALSNRGEECTEKSSDVMESLRVNTPTPPIDQNSDDVPSRNPSPSRTLLSDDVPSTSRAALEFLQRSQNMSKSRPPDESSADVVFKKPLAPAPRAKSKKGKSEVDKLKLAKMPVEAEELNTTGIRRSKRGQVPLQMSWCHTMDPSKFNFMSGFIEPRSKNSKTKKGNLSKAKKASATKPKPTVEKNLPDNRGPLCSSTPRISEKLPGAIPHSESLGLSTLTWEETEVQAEAEKVPKKRGRPKKAVGGVQTDTEAEPEPEPEPMISSVAPLTSDQEEPDVPDEQAPYTEAALGPVVFSTPLRDEQEEASTKLMQWLRGVGDAPPSASMSDENASVSSANELIFCQVDGIDYAFYNTKEKAMLGYMRFKPYQKRSMKQAKVHPLKLLVQFGEFNVETLAVGEEKEVHSVLRVGDMIEIDRGTRYSIQNAIDKVSVLMCIRS
